B1: IFN-γ: cytokine (protein, UniProt P01579 24-161, looked up)
Interferon gamma: QDPYVKEAENLKKYFNAGHSDVADNGTLFLGILKNWKEESDRKIMQSQIVSFYFKLFKNFKDDQSIQKSVETIKEDMNVKFFNSNKKKRDDFEKLTNYSVTDLNVQRKAIHELIQVMAELSPAAKTGKRKRSQMLFRG
B2: IL-7: cytokine (protein, UniProt P13232 26-177, looked up)
Interleukin-7: DCDIEGKDGKQYESVLMVSIDQLLDSMKEIGSNCLNNEFNFFKRHICDANKEGMFLFRAARKLRQFLKMNSTGDFDLHLLKVSEGTTILLNCTGQVKGRKPAALGEAQPTKSLEENKSLKEQKKLNDLCFLKRLLQEIKTCWNKILMGTKEH
B3: IL12: murine IL12 purified from the supernatant of transfected P1HTR cells; heterodimeric cytokine (protein, UniProt P43431 23-215; P43432 23-335, looked up)
Interleukin-12 subunit alpha: RVIPVSGPARCLSQSRNLLKTTDDMVKTAREKLKHYSCTAEDIDHEDITRDQTSTLKTCLPLELHKNESCLATRETSSTTRGSCLPPQKTSLMMTLCLGSIYEDLKMYQTEFQAINAALQNHNHQQIILDKGMLVAIDELMQSLNHNGETLRQKPPVGEADPYRVKMKLCILLHAFSTRVVTINRVMGYLSSA
Interleukin-12 subunit beta: MWELEKDVYVVEVDWTPDAPGETVNLTCDTPEEDDITWTSDQRHGVIGSGKTLTITVKEFLDAGQYTCHKGGETLSHSHLLLHKKENGIWSTEILKNFKNKTFLKCEAPNYSGRFTCSWLVQRNMDLKFNIKSSSSSPDSRAVTCGMASLSAEKVTLDQRDYEKYSVSCQEDVTCPTAEETLPIELALEARQQNKYENYSTSFFIRDIIKPDPPKNLQMKPLKNSQVEVSWEYPDSWSTPHSYFSLKFFVRIQRKKEKMKETEEGCNQKGAFLVEKTSTEVQCKGGNVCVQAQDRYYNSSCSKWACVPCRVRS

What was measured:
[1] = Enhancement of the effect of the QS21/MPL adjuvant by other cytokines
[2] = test system: P1983 cells; assay: IL12 dose curve: CTL activity in mice receiving peptide P198 + DQS21/3D-MPL + various doses of IL12; format: in vivo, DBA/2 mice; conditions: with P198 peptide and DQS21/3D-MPL
Experimental: DBA/2 mice were injected s.c. in the two footpads with 50 μg of P198 peptide ([…]), corresponding to the antigen expressed by the P198 TUM—clone (Sibille et al., J. Exp. Med., 1990: 172, 35-45), mixed with the DQS21/3D-MPL adjuvant (adjuvant) 100 μl final. […] This murine IL12 was purified from the supernatant of transfected P1HTR cells as described in Gajewski et al. (J. Immunol. 1995, 154: 5637-5648). […] On day 16, the mice were bled and stimulation of blood lymphocytes was performed by mixing 3×10^5 Ficoll purified lymphocytes with […] stimulating cells (100 Gy) and 2×10^6 irradiated normal syngeneic spleen cells (30 Gy) as feeder cells. The stimulating cells were P1983 cells, an azaguanine-resistant variant derived from the P198 TUM-clone. The cells were incubated in 48-well plates in a final volume of 0,8 ml MLTC medium described in Warnier et al. (Int. J. Cancer, 1996, 67, 303-310). Seven days later, CTL activity was measured in a standard chromium-release assay using 1,000 5^1Cr-labelled targets. […] Specific lytic units were calculated by subtracting the values obtained with the negative targets (usually less than 0,3 LU) from those obtained with the positive target. Mice were scored as ± when the LU detected were comprised between 0,1 and 1; + when LU were comprised between 1 and 10; and ++ above 10 LU. […]

[3] = mouse, in vivo

| Molecule | enhancement of the effect of the QS21/MPL adjuvant [1] | effect of IL12 on CTL activity ([2]; IL12 dose/mouse/day 10 ng (100U)) | effect of IL12 on CTL activity ([2]; IL12 only 30 ng (so in the source)) | systemic toxicity [3] |
| --- | --- | --- | --- | --- |
| GM-CSF: cytokine | unable to enhance | – | – | – |
| IL-6: cytokine | unable to enhance | – | – | – |
| B1 | unable to enhance | – | – | – |
| B2 | unable to enhance | – | – | – |
| B3 | – | nearly fully maintained | disappeared | largely reduced but not totally absent |

Reference: patent publication US6375945B1, “Adjuvant compositions for vaccines” (SmithKline Beecham Biologicals s.a., priority 1997, dated 2002)
